B1: human anti-SEB monoclonal antibody F10 (antibody, V domains shown)
VH: QVQLVQSGGGLVKPGGSLRLSCAASGFTFSSYSMNWVRQAPGKGLEWVSSISSSSSYIYYADSVKGRFTISRDNAKNSLYLQMNSLRAEDTAVYYCARGGVAGRTEIYYYYYGMDVWGQGTTVTVSS
VL: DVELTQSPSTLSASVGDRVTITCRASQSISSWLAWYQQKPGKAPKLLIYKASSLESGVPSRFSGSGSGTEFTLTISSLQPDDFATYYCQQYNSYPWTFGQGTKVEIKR
B2: human anti-SEB monoclonal antibody 79G9 (antibody, V domains shown)
VH: EVQLEESGAGLLKPSETLSLTCAVYGGSFSGYYWSWIRQAPGKGLEWIGEIDHSGTTNYNPSLKSRVTISVETSKNQFSLRLSSVTAADSAVYYCASSGYCSHGLCPQEDWGQGTLVTVSS
VL: DIELTQSPSFLSASVGDRVAITCRASQGISNYLAWYQQKPGKAPKLLIYAAFVLQSGVPSRFSGSGSGTEFTLTISNLQPEDFATYYCQQLNSYPRAFGPGTKVDIKR
B3: human anti-SEB monoclonal antibody 100C9 (antibody, V domains shown)
VH: EVQLVESGGGLVQPGGSLRLSCSASGFTFSSYWMSWVRQAPGKGLEWVANIIQDGSEKYYADSVKGRLTISRDNAKNSLYLQMNSLRVDDTAVYYCARGYEGCSATRCYLYYFDYWGPGTLVTVSS
VL: SYVLTQPPSVSVSPGQTARITCSGDALPKQYTYWYQQKPGQAPVVVIYKDSERPSGIPERFSGSSSGTTVTVTISGVQAEDEADYYCQSADSSGTSLVFGGGTKLTVLG

What follows are binders tested against tetanus toxoid (UniProt P04958 2-1315) (assay: hybridoma screening ELISA).
tetanus toxoid, sequence (P04958 2-457 limits assumed, chain 1 of 2): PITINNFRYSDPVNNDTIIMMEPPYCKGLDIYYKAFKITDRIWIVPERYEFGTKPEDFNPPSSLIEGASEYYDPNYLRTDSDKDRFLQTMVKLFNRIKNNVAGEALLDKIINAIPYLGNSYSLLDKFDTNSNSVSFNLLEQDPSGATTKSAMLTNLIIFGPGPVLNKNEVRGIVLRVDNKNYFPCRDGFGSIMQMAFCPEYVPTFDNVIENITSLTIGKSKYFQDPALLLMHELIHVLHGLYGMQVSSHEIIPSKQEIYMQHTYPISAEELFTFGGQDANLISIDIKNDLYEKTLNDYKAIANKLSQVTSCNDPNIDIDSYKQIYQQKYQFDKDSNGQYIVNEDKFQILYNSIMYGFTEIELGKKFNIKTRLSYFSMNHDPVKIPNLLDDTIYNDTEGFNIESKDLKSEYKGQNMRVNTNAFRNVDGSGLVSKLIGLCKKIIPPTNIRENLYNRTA
tetanus toxoid, sequence (P04958 458-1315 limits assumed, chain 2 of 2): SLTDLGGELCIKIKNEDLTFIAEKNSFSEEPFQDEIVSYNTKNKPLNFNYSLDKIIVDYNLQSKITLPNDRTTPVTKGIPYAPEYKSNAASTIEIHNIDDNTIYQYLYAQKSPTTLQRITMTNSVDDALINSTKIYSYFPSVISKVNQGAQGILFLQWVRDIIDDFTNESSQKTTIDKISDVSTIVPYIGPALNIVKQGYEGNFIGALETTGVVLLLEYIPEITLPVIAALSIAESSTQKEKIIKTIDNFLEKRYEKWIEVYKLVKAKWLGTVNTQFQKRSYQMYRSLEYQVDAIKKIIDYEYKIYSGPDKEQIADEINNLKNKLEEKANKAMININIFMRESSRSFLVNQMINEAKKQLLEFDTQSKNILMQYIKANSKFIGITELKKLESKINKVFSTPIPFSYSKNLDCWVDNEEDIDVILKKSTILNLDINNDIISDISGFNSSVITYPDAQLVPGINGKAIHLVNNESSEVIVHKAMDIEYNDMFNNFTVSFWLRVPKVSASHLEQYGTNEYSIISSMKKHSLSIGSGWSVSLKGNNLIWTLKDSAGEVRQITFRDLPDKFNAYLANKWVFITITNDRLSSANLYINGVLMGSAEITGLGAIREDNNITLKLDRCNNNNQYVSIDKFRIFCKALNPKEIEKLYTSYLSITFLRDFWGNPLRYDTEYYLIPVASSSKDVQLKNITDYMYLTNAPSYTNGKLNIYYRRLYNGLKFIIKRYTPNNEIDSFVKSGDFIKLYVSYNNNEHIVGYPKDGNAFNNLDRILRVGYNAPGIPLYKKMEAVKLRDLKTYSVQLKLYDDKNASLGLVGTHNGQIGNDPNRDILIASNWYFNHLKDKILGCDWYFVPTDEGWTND

Q: Does B1 bind?
A: no binding

Q: Does B2 bind?
A: no binding

Q: Does B3 bind?
A: no binding
